{"source": "the DeepSol protein solubility set", "data": [{"test": "soluble on expression in E. coli; label from the status in PepcDB or PDB records", "values": [{"sequence": "MGHHHHHHSHMKAEGKKPISKIPKKGFVEVTELTDVTYTSNLVRLRPGHMNVVLILSNSTKTSLLQKFALEVYTFTGSSCLHFSFLSLDKHREWLEYLLEFAQDAAPIPNQYDKHFMERDYTGYVLALNGHKKYFCLFKPQKTVEEEEAIGSCSDVDSSLYLGESRGKPSCGLGSRPIKGKLSKLSLWMERLLEGSLQRFYIPSWPELD", "soluble on expression in E. coli": "not soluble"}, {"sequence": "MYNGYADVDDLHVYVYCGNTPELRLQELVADVKITIQPENEKSCCIKKFLSLKDNKFESIAMSADFGDFDEMVYNYAIDGKCTIEADITIIKEVGDARAKLRDFGEETRDVSDVVINVQNEKFHVSKMFLAAQSSHFKLLFKNSNDSEIALDGIIPEDFQNFLELLYGEPALTEDSVEGILQIAARFDVSTVIRKGEDFLLQKSEFSPEKKLQMSLKYNLENLKSKCLSEVKSVADIRSVLPKDIKEMDHSVMAELLEKSLGLQKT", "soluble on expression in E. coli": "not soluble"}, {"sequence": "MKDDKTILILTAQFGAGHISAAKAVKECIIEKYSNYNVVIQNFINASIPMMNKPMVKLYENNTKYTPGLYNYYYYFKKSFDSRHDLSHKLYTPKLSEYIADINPDLIISTFPLAAACVNNFKIKNPDINIPTLTVITDVVDSMEWVFENTDLYFVPSPEIKNRFFQKGINPDSIKVTGVPLEHHHHHH", "soluble on expression in E. coli": "not soluble"}, {"sequence": "MASFCNSWKRKHNEAIKLSEEIDGMILERSSLAETSSYARGHASYMRRKITILANGVQTLKNLLAESQGKSISAKEMSRCKDMVEDLRSKAYQMASALDMLKFSNIGSLLGQDDIMSRVIDMDNQEIVGFQRTTMKGKLKGVMHLKREALAMNMELGLQTRLIDRLDHHVDVSASDVEELQRSIDTGVCMTLLLSVVVVVFGLSEFVKFGRRRILG", "soluble on expression in E. coli": "soluble"}, {"sequence": "MVAELAGQQDPGLGAFSCQEARRAWLDRHGNLDEAVEECVRTRRRKVQELQSLGFGPEEGSLQALFQHGGDVSRALTELQRQRLEPFRQRLWDSGPEPTPSWDGPDKQSLVRRLLAVYALPSWGRAELALSLLQETPRNYELGDVVEAVRHSQDRAFLRRLLAQECAVCGWALPHNRMQALTSCECTICPDCFRQHFTIALKEKHITDMVCPACGRPDLTDDTQLLSYFSTLDIQLRESLEPDAYALFHKKLTEGVLMRDPKFLWCAQCSFGFIYEREQLEATCPQCHQTFCVRCKRQWEEQHRGRSCEDFQNWKRMNDPEYQAQGLAMYLQENGIDCPKCKFSYALARGGCMHFHCTQCRHQFCSGCYNAFYAKNKCPEPNCRVKKSLHGHHPRDCLFYLRDWTALRLQKLLQDNNVMFNTEPPAGARAVPGGGCRVIEQKEVPNGLRDEACGKETPAGYAGLCQAHYKEYLVSLINAHSLDPATLYEVEELETATERYLHVRPQPLAGEDPPAYQARLLQKLTEEVPLGQSIPRRRK", "soluble on expression in E. coli": "soluble"}, {"sequence": "MSLGQSKVVYLNTHSTSSAGVETLNELCRLAEPGLETMLRQALDQVDDALFDRAERAANNADQALFFATMRQVRMSRRMVVQTFTQEMESAFSRLTQPHSSQTQEPAATAREDYSLELMDETVVEERVAAETVVGKLRTRSVFPLAQLQSRLDYLVVERKVDERNNPLDPRQVVDAFAVAMERLNIEIQPKLIIFKLFEKQALRQLPALYEAANRLLIDAGIMPKLRATGEPLVANEDRVQAPESGHQTSVDSEADTLTGNGSATLELLQGLLAQARGGNQPVPSTARCAGGASHSDLVQALSALQQQPRFANNETGGAQPFAAEELKALLGSALFVAPGGLPQPIERAADDTIDIVSMLFDIILDDSRLAPSIKAVIARLQIPVLKVAMLDRSFFNSRQHPARALINELAHAAMGWVEPENPSADPLYRKMNEVMNRILEGFEEDIVLFEQVLQDFRLFLEQERERAQTVEARTCQAAEGKAKVEDARERVQAEIERRLRGGSVPSVVHQILEGPWFKVLFITCVKDGPQGAVWESQLELMDRLIWSVQPNADPERRQDVLARIPALLNDLREGLNAILYNPFEMTRLFEELEAEHIRCLSAPPADLSDNTVNVEQGSEDESAFAQEGSSYDCDEPSVAAEPPQLTEEQCLREECLQRLVRVDLGTWFEFSTDAGRQLRAKLSARLNGGRRLIFVNRAGFKLADKKTEEVAADLSSGKAFILDHNMLFDKALEQVITNLRDLRVEQAEGHHHHHH", "soluble on expression in E. coli": "not soluble"}, {"sequence": "MMIVKRFILGEYSTNTYLVVSGDEGILIDVAENPSEVIDYILTNNIKLKSIYATHGHFDHVLGVTEVKKYFNVPFFLHRSDLDLLRRDERTKGIVPDGFIDEKSIIKIGNEELKVIETPGHTMGSVCYIFDDGIFTGDTLFNGSIGRYDLGGDKNLLKKSLNRLMELNDGLTVYPGHGFFTTLGYEKLTNPFLNGEFEW", "soluble on expression in E. coli": "soluble"}]}]}
